The target in test [1] is T1, human PVRIG on cells (human, UniProt Q6DKI7 1-326).
T1 construct: whole, on cells; over-expressed on HEK cells or endogenous on Jurkat and CD8 T cells; also called hPVRIG; HEK hPVRIG cells
T1 sequence (looked up): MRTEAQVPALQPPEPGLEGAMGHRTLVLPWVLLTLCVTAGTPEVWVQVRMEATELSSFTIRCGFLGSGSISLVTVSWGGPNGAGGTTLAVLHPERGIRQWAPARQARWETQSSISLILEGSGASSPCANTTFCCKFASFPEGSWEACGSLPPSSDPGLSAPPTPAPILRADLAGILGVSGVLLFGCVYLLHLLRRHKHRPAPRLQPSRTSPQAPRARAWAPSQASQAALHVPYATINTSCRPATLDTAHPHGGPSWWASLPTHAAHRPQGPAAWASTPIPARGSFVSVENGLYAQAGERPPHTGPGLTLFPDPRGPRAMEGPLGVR
Description: FACS, HEK hPVRIG over HEK parental cells, 3.3ug/ml. (In general: A flow cytometer gives signals particle by particle.)

The target of test [2] is T2, PVRIG (FACS-based competition assay of FIGS. 7 and 15) (Homo sapiens, UniProt Q6DKI7).
T2 construct: made because the format of the assay is only described in U.S. Ser. No. 15/048,967; also called human PVRIG
T2 sequence (receptor, looked up): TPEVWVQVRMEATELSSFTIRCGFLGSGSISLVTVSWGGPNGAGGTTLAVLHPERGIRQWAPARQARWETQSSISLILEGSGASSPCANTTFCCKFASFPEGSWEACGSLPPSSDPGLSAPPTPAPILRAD
Kind of test: FACS-based competition assay of PVRIG blocking; format and competitor not given.

For test [3], the target named is T1, human PVRIG on cells. Kind of test: FACS, human PBMC, CD8+ T cells, 10ug/ml.
The target in test [4] is T2, PVRIG (FACS-based competition assay of …). Description: FACS-based competition assay of PVRIG blocking; format and competitor not given. The source holds these as a separate data set.
Test [5] addresses T1, human PVRIG on cells. Kind of test: FACS, Jurkat cells, relative to control, 3.3ug/ml.
Test [6] addresses T1, human PVRIG on cells. Description: FACS, human PBMC, CD8+ T cells, 10ug/ml. This is another data set of the same source.
In test [7] the target is T3, cynomolgus PVRIG on cells (cynomolgus, UniProt A0A2K5WVV8 41-322).
T3 construct: whole, on cells; also called cPVRIG; expi cPVRIG cells
T3 sequence: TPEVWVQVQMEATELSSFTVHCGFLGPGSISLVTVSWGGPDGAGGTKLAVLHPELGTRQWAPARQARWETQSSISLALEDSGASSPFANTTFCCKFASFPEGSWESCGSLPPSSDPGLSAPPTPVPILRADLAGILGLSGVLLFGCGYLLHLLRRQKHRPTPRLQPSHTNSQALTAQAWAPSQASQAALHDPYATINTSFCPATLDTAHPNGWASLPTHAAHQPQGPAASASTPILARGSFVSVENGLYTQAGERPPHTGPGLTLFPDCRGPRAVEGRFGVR
Description: FACS, expi cPVRIG over expi parental cells, 3.3ug/ml.

In test [8] the target is T1, human PVRIG on cells. Kind of test: FACS, HEK hPVRIG cells (HEK OE).
Test [9] concerns the target T1, human PVRIG on cells. Description: FACS, human PBMC, CD56 int. NK cells, 10ug/ml.
The target in test [10] is T3, cynomolgus PVRIG on cells. Kind of test: FACS, expi cPVRIG over expi parental cells, 3.3ug/ml. The source holds these as a separate data set.
Test [11] has as its target T1, human PVRIG on cells. Kind of test: FACS, human PBMC, CD56 int. NK cells, 10ug/ml. The source holds these as a separate data set.
Test [12] concerns the target T3, cynomolgus PVRIG on cells. Description: FACS, cyno PBMC, CD8+ T cells, 10ug/ml.
Test [13] deals with T3, cynomolgus PVRIG on cells. Description: FACS, cyno PBMC, NK cells, 10ug/ml.
The target in test [14] is T3, cynomolgus PVRIG on cells. Kind of test: FACS, cyno PBMC, NK cells, 10ug/ml. The source holds these as a separate data set.
For test [15], the target named is T3, cynomolgus PVRIG on cells. Description: FACS, cyno PBMC, CD8+ T cells, 10ug/ml. This is another data set of the same source.

Where two headings read alike, the source gives them in different places.

B1: CHA.7.549 (antibody, V domains shown)
VH: QVQLQQPGTELVKPGASVKLSCKASGFTFTTHWMHWVRQRPGQGLEWIGNIYPSNGGSNYNEKFKTKATLTVDRSSSTAYMHLSSLTSEDSAVYYCARRVNWDGYYFDYWGQGTTLTVSS
VL: DIVMTQSQKFMSTSVGDRVSVTCKASQNVGTNVAWYQQKPGQSPKLLIYSASYRYSGVPDRFTGSGSGTDFTLTISNVQSEDLADYFCQQYNSYPLTFGGGTKLEIK
Broadly, the IC50 is the concentration that inhibits the measured activity by half. A higher IC50 goes with lower potency. A word on the EC50: it is the concentration that produces a half-maximal response. Read a low EC50 as a more potent agent. On to B1, for which the “gMFIr HEK OE/par” value in test [1] worked out at 29.7. Further, the IC50 in test [2] and in test [4] was 36.1 nM in each case. Besides, the “gMFIr Human CD8+ T cells” value in test [3] and in test [6] was 1.42 throughout. Besides, the “gMFIr Jurkat” value in test [5] came to 2.23. The “gMFIr Expi cyno OE/par” value in test [7] and in [10] was 1 in each case. In test [8], this molecule displayed an EC50 of 2.6 nM. For the same molecule, the “gMFIr Human CD56 int. NK” value in test [9] and in [11] was 3.05 in each case.

B2: CHA.7.550 (antibody, V domains shown)
VH: QVQLQESGTELVKPGASVKLSCKASGYTFTSYWIHWVKQRPGQGLEWIGNINPSNGGTNYNEKFKSKAALTVDKSSSTAYMQLSSLTSEDSAVYYCARRGLPYFFDYWGQGTTLTVSS
VL: DIVMTQSQKFMSTSVGDRVSVTCKGSQNVGYNVAWYQQKPGQSPKALVYSASDRHSGVPDRFAGSGSGTDFTLTISNVQSEDLAEYFCQQYNSYPLTFGAGTKLELK
Regarding B2, the “gMFIr HEK OE/par” value in test [1] turned out to be 27.7. The IC50 in test [2] and in [4] was 58.3 nM each time. For the same molecule, the “gMFIr Human CD8+ T cells” value in test [3] and in test [6] was 1.29 in each case. Besides, in test [5], the “gMFIr Jurkat” value came out at 2.1. The “gMFIr Expi cyno OE/par” value in test [7] and in test [10] was 0.9 in each case. In [8], this molecule yielded an EC50 of 1.34 nM. For the same molecule, the “gMFIr Human CD56 int. NK” value in test [9] and in test [11] was 1.6 throughout.

B3: CHA.7.543 (antibody, V domains shown)
VH: QVQLKESGPGLVAPSQSLSITCTVSGFSLSGYGIKWVRQPPGKGLEWLGTIWGDGSTDYNSALKSRLSISKDNSKSQVFLKMTSLQTDDTARYYCASDSLGITFGYWGQGTLVTVSA
VL: DIQMTQTTSSLSASLGDRVTISCRASQDISNYLNWYQQKPDGTVKLLIYYTSRLHSGVPSRFSGSGSGTDYSLTISNLEQEDIATYFCQQGNTLPLTFGAGTKLELK
Regarding B3, in [1], the “gMFIr HEK OE/par” value amounted to 49.8. For the same molecule, the “gMFIr Cyno CD8+ T cells” value in test [12] and in test [15] was 1.39 each time. Also, the “gMFIr Human CD8+ T cells” value in [3] and in [6] was 4.33 throughout. Moreover, the “gMFIr Jurkat” value in test [5] turned out to be 6.73. For the same molecule, the “gMFIr Cyno NK cells” value in test [13] and in test [14] was 1.35 throughout. Also, the “gMFIr Expi cyno OE/par” value in [7] and in [10] was 0.83 throughout. The EC50 in test [8] was found to be 0.52 nM. For the same molecule, the “gMFIr Human CD56 int. NK” value in [9] and in [11] was 4.48 in each case.

B4: CHA.7.545 (antibody, V domains shown)
VH: QIQLVQSGPDLKKPGETVKISCKASGYTFTTYGMSWVKQAPGRGLKWMGWINTYSGVSTFPDDFKGRFAFSLETSASTAYLQINNLKNEDSATYFCARLGMGSTTGAGYFDVWGTGTTVTVSS
VL: DIVLTQSPAIMSASPGEKVTMTCSASSSVSSWYLHWYQQKSGASPKLWIYGTSNLASGVPARFSGSGSGTSYSLTISSVEAEDAATYYCQQYRSDPYTFGSGTKLEIK
For B4, in test [1], the “gMFIr HEK OE/par” value came to 44.3. The IC50 in test [2] and in [4] was 96.1 nM each time. For the same molecule, the “gMFIr Human CD8+ T cells” value in [3] and in [6] was 2.82 in each case. For the same molecule, in test [5], the “gMFIr Jurkat” value was found to be 6.53. The “gMFIr Expi cyno OE/par” value in test [7] and in test [10] was 0.91 each time. Further, the response in [8] was half-maximal at 0.76 nM (EC50). Besides, the “gMFIr Human CD56 int. NK” value in test [9] and in [11] was 2.54 each time.

B5: CHA.7.547 (antibody, V domains shown)
VH: QIQLVQSGPDLKKPGETVKISCKASGYTFTTYGMSWVKQAPGRGLKWMGWINTYSGVSTFPDDFKGRFAFSLETSASTAYLQINNLKNEDSATYFCARLGMGSTTGAGYFDVWGTGTTVTVSS
VL: ENVLTQSPAIMSASLGEKVTLSCRASSSVNYMYWYQQKSDASPKLWIYYTSNLAPGVPARFSGSGSGNSYSLTISSVEGEDAATYYCQQFTSSPWTFGGGTKLEIK
For B5, the “gMFIr HEK OE/par” value in test [1] was 10.9. Further, the IC50 in [2] and in test [4] was 27.9 nM each time. In addition, the “gMFIr Human CD8+ T cells” value in [3] and in [6] was 1.13 throughout. Besides, the “gMFIr Jurkat” value in test [5] came to 1.02. The “gMFIr Expi cyno OE/par” value in test [7] and in test [10] was 26.6 throughout. In test [8], this molecule displayed an EC50 of 14.4 nM. Further, the “gMFIr Human CD56 int. NK” value in test [9] and in test [11] was 2.21 in each case.

B6: CHA.7.546 (antibody, V domains shown)
VH: QIQLVQSGPELKKPGETVKISCKASGYTFTTYGMSWVKQAPGKGLKWMGWINTYSGVSTYADDFEGRFAFSLETSVSTAYLQINNLKNEDTATYFCARLGRGSTTGAGYLDVWGTGTTVTVSS
VL: DIVLTQSPAIMSASPGEKVSMTCSASSSVSSWYLHWYQQKSGASPKLWIYGTSNLASGVPARFSGSGSGTSYSLTISSVEAEDAATYYCQQYHSDPYTFGSGTKLEIK
As to B6, in test [1], the “gMFIr HEK OE/par” value worked out at 43.1. Also, the IC50 in test [2] and in [4] was 92 nM in each case. Besides, the “gMFIr Human CD8+ T cells” value in test [3] and in test [6] was 2.95 each time. Moreover, the “gMFIr Jurkat” value in test [5] amounted to 6.42. Further, the “gMFIr Expi cyno OE/par” value in [7] and in [10] was 0.85 in each case. In addition, in test [8], the EC50 came out at 0.61 nM. Besides, the “gMFIr Human CD56 int. NK” value in test [9] and in test [11] was 2.75 each time.

B7: CHA.7.548 (antibody, V domains shown)
VH: EVQLQQSGPELVKPGASVKISCKASGYTFTDYSMNWVKQSHGKSLEWIGDITPNNGSPNYNQKFKDKATLTVDKSSSTVYMELRSLTSEDSAVYYCASLFFDYWGHGTTLTVSS
VL: DIVMTQSPSSLSVSAGEKVTMSCKSSQSLLNSGNQKNYLAWYQQKPGQPPKLLIYGASTRDSGVPDRFTGSGSGTDFTLTITSVQAEDLAVYYCQNDHTYPYTFGGGTKLEIK
With B7, the “gMFIr HEK OE/par” value in test [1] is 45.3. The IC50 in [2] and in test [4] was 19 nM throughout. The “gMFIr Cyno CD8+ T cells” value in [12] and in test [15] was 1.09 throughout. Besides, the “gMFIr Human CD8+ T cells” value in [3] and in test [6] was 3.35 in each case. In addition, the “gMFIr Jurkat” value in test [5] came out at 7.37. Also, the “gMFIr Cyno NK cells” value in test [13] and in test [14] was 1.18 each time. Besides, the “gMFIr Expi cyno OE/par” value in test [7] and in [10] was 4.25 throughout. The midpoint of the response in test [8], the EC50, lay at 0.27 nM. Also, the “gMFIr Human CD56 int. NK” value in [9] and in [11] was 3.15 in each case.

(Values after US20240075137A1 (COMPUGEN, published 2024).)
